The values below come from paper PMC5967863.

For orientation: stoichiometry N means a count of units in the complex or per binding partner.

The assay concerns the target full-length human TRPC3 (human) (UniProt Q13507). The assay can be described thus: cryo-EM structure; purified TRPC3 at 5 mg/mL in 20 mM Tris 8.0, 500 mM NaCl, 1 mM EDTA, 0.1% digitonin; single-particle reconstruction with C4 symmetry, 3.3 Å.

Turning to “full-length human TRPC3 (from UniProt Q13507 1-921) (natural protein)”, the stoichiometry N was found to be 4.
